These results are taken from publication PMC9870165.

The target of test [1] is recombinant ZIKV E protein (ectodomain of Zika virus envelope glycoprotein E) (Zika virus). Briefly: crystal structure; recombinant ZIKV E and G9E Fab mixed 1:1.2 at room temperature for 30 min, complex purified on Superdex 200-increase; crystals in 100 mM HEPES pH 7.5, 10% (w/v) PEG 8000; 3.4 Å.
Test [2] addresses ZIKV E protein on wild-type Zika virus H/PF/2013 in culture supernatant (Zika virus (strain H/PF/2013)). Put plainly: ELISA; ZIKV capture ELISA: virus in culture supernatant captured by plate-bound mAb 4G2; serially diluted Fabs added 1 h at 37°C; anti-human Fab alkaline phosphatase; EC50 from titration. For orientation: ELISA stands for enzyme-linked immunosorbent assay.

In general, stoichiometry N refers to a count of units in the complex or per binding partner. With “recombinant ZIKV E protein (ectodomain of Zika virus envelope glycoprotein E) (domain or fragment)”, the stoichiometry N in test [1] was 2.
As for “G9E-S1/2 Fab (paratope mutant D53A, D54A, D57S, Q58A, K76S)”, in test [2], the fold weaker binding than G9E-S2 stood at 30 fold.
In test [2], “G9E-S2 Fab (paratope mutant D57S, Q58A, K76S)” gave a fold reduction in binding compared to WT G9E of 10 fold.
